Measured values from article PMC7152510 (Nature structural & molecular biology, 2017).
Where two headings read alike, the source gives them in different places.

Experiments:
[1] = molecular target: ΔMIT katanin p60 (E293Q) (Caenorhabditis elegans); experiment: solution SAXS
AUC [2] = molecular target: the molecule itself; experiment: AUC
AUC [3] = molecular target: the molecule itself; experiment: AUC; remark: listed apart in the source

ΔMIT katanin p60 (E293Q) (domain or fragment)
stoichiometry N [1]: 6

B1: Caenorhabditis elegans katanin p60 (MEI-1), catalytic subunit, wild type (enzyme, UniProt P34808 1-472, looked up)
chain: MNGDVQSVIRGYLERAQVAKTMSDAGRWNEAGDLLRQLMTDVKSCKISASNRDEHDARNTFLRALEANLKLVQQNVRDEDDLHEAMTRQSGSPEPPADPDVWSKPSPPLPSSSKFGATKKGVGAAGPRPREISKSTSSMSTNPADVKPANPTQGILPQNSAGDSFDASAYDAYIVQAVRGTMATNTENTMSLDDIIGMHDVKQVLHEAVTLPLLVPEFFQGLRSPWKAMVLAGPPGTGKTLIARAIASESSSTFFTVSSTDLSSKWRGDSEKIVRLLFELARFYAPSIIFIDEIDTLGGQRGNSGEHEASRRVKSEFLVQMDGSQNKFDSRRVFVLAATNIPWELDEALRRRFEKRIFIPLPDIDARKKLIEKSMEGTPKSDEINYDDLAARTEGFSGADVVSLCRTAAINVLRRYDTKSLRGGELTAAMESLKAELVRNIDFEAALQAVSPSAGPDTMLKCKEWCDSFGAM
stoichiometry N (AUC [2]): 6

B2: Caenorhabditis elegans katanin p60 (E293Q), Walker B mutant, full-length (enzyme, UniProt P34808 1-472, looked up)
chain: MNGDVQSVIRGYLERAQVAKTMSDAGRWNEAGDLLRQLMTDVKSCKISASNRDEHDARNTFLRALEANLKLVQQNVRDEDDLHEAMTRQSGSPEPPADPDVWSKPSPPLPSSSKFGATKKGVGAAGPRPREISKSTSSMSTNPADVKPANPTQGILPQNSAGDSFDASAYDAYIVQAVRGTMATNTENTMSLDDIIGMHDVKQVLHEAVTLPLLVPEFFQGLRSPWKAMVLAGPPGTGKTLIARAIASESSSTFFTVSSTDLSSKWRGDSEKIVRLLFELARFYAPSIIFIDQIDTLGGQRGNSGEHEASRRVKSEFLVQMDGSQNKFDSRRVFVLAATNIPWELDEALRRRFEKRIFIPLPDIDARKKLIEKSMEGTPKSDEINYDDLAARTEGFSGADVVSLCRTAAINVLRRYDTKSLRGGELTAAMESLKAELVRNIDFEAALQAVSPSAGPDTMLKCKEWCDSFGAM
stoichiometry N (AUC [3]): 6
